From article PMC9076029
Where two headings read alike, the source gives them in different places.

Experiments:
[1] = biological target: SARS-CoV-2 spike protein receptor binding domain, wild-type (SARS-CoV-2) (UniProt P0DTC2); test: ITC
[2] = biological target: SARS-CoV-2 spike protein receptor binding domain, wild-type (SARS-CoV-2) (UniProt P0DTC2); test: ITC; remark: listed apart in the source

Substance | Kd [1] | Kd [2]
P2B-2F6 single chain variable fragment (scFv) | 81.4 nM | –
CC12.1 single chain variable fragment (scFv) | 23.9 nM | 28 nM
